We go through five molecules from patent US20150361149A1 (FLORIDA STATE UNIVERSITY RESEARCH FOUNDATION, published 2015).

Series [1] addresses FGFR on NIH 3T3 fibroblasts. The series is described as follows: cell-based or functional assay.
Series [2] deals with the molecule itself. The series is described as follows: size-exclusion chromatography of peptide fragments.
Series [3] deals with the molecule itself. As to the kind of experiment: X-ray crystal structure (Δ1-10 form). The source says:
Crystals of Monofoil-4PΔ1-10 and Difoil-4PΔ1-10 grew in 2 M ammonium sulfate, 0.1 M Na citrate pH 5.5. Crystals were mounted in a stream of gaseous nitrogen at 100 K and diffraction data were collected at either the Southeast Regional Collaborative Access Team 22-BM beam line (λ=1.00 Å) at the Advanced Photon Source, Argonne National Laboratory, using a MarCCD 300 detector (Mar USA) or at the X25 beam line of the National Synchrotron Light Source at Brookhaven National Laboratory, using an ADSC Q315 CCD detector. Each dataset was collected from a single crystal except Monofoil-4PΔ1-10 and Difoil-4PΔ1-10. Datasets from two crystals of Monofoil-4PΔ1-10 were combined for better completion and redundancy.
Diffraction data were indexed, integrated, and scaled using the HKL2000 software package (Otwinowski Z (1993) Proceedings of the CCP4 Study Weekend: “Data Collection and Processing”, eds Sawyer L, Isaacs N, Bailey S (Science and Engineering Research Council, Daresbury Laboratory, England), pp 56-62 and Otwinowski Z and MinorW (1997) Meth Enzymol 276:307-326). Molecular replacement and model building utilized the PHENIX software package (Zwart P H et al. (2008) Methods Mol Biol 426:419-435), with 5% of the data in the reflection files set aside for Rfree calculations (Brunger A T (1992) Nature 355:472-475). […]

Consider “human fibroblast growth factor-1 (FGF-1), 140 amino acid form (from UniProt P05230 16-155) (ligand)”, for which the mitogenic activity with 3T3 fibroblasts, EC50 in series [1] is 0.0584 µg/mL.

B1: peptide fragment of FGF-1, residues 94-140 (third trefoil-fold subdomain) (peptide, UniProt P05230 109-155, looked up)
peptide: YNTYISKKHAEKNWFVGLKKNGSCKRGPRTHYGQKAILFLPLPVSSD
For B1, the binding result in series [2] is listed as “no binding”.

B2: peptide fragment of FGF-1, residues 10-52 (first trefoil-fold subdomain) (peptide, UniProt P05230 25-67, looked up)
peptide: KPKLLYCSNGGHFLRILPDGTVDGTRDRSDQHIQLQLSAESVG
Turning to B2, the binding result in series [2] is “no binding”.

B3: peptide fragment of FGF-1, residues 53-93 (second trefoil-fold subdomain) (peptide, UniProt P05230 68-108, looked up)
peptide: EVYIKSTETGQYLAMDTDGLLYGSQTPNEECLFLERLEENH
In the case of B3, the binding result in series [2] was “no binding”.

B4: Difoil-4PΔ1-10 (other)
chain: HHHHHHPVLLKSTETGQYLRINPDGTVDGTRDRSDPHIQFQISPEGNGEVLLKSTETGQYLRINPDGTVDGTRDRSDPHIQFQISPEGNG
notes: Form used for crystallisation (PDB 3OGF); Three chains make two β-trefoil folds; also called Difoil-4P* (Δ1-10 mutant form)
In the case of B4, the binding result in series [3] is recorded as “binds”.
